Eight molecules from patent US20260069689A1 (Regeneron, published 2026) can be followed below.

In test [1] the target is T1, SARS-COV-2 RBD extracellular domain expressed with a C-terminal mouse IgG2a Fc (SARS-CoV-2). The test is described as follows: Biacore SPR, mAb captured on anti-hFc, 25 C. (In general: SPR reads the build-up and loss of mass on a sensor chip optically.)
Test [2] has as its target T1, SARS-COV-2 RBD extracellular domain …. The test is described as follows: Biacore SPR, mAb captured on anti-hFc, 37 C.

B1: mAb15170 (antibody, V domains shown)
VH: EVQLVESGGGLVQPGGSLRLSCAATGITVSSNYMSWVRQAPGKGLEWVSLIYSGGSTFYADSVKGRFTISRHNSKNTLYLQMSSLRAEDTAVYYCARDLVDFGMDVWGQGTTVTVSS
VL: DIQLTQSPSSLSASVGDRVTITCRASQGISNYLAWYQQKPGKAPKLLIYAASTLQSGVPSRFSGSGSGTDFTLTISSLQPEDFGTYYCQQLNSDSPTFGQGTKVEIKR
Regarding B1, in test [1], the Kd is no more than 29.5 pM, the off-rate constant (koff) was no more than 1e-05 s⁻¹, the kon was determined as 339000 M⁻¹ s⁻¹ and the t½ is 19.2 h. In test [2], this molecule yielded a Kd of 91 pM, a koff of 2.41e-05 s⁻¹, a kon of 260000 M⁻¹ s⁻¹ and a t½ of 8 h.

B2: mAb15164 (antibody, V domains shown)
VH: EVQLVESGGGLVQPGGSLRLSCAASGFAVSSNYMTWVRQAPGKGLEWVATIYSGDSTYYADSVKGRFTISRHNSKNTLSLQMNSLRADDTAIYYCARLSGVLSGTYNGAFDIWGQGTMVTVSS
VL: QSALTQPASVSGSPGQSITISCTGTSSDFGNYNIVSWYQQHPGQAPKVMIYEGNKRPSGVSNRFSGSKSGHTASLTISGLQAEDEADYYCSSYAGSSTWVFGGGTKLTVLG
Turning to B2, in test [1], the Kd is 56.9 pM, the koff is 2.12e-05 s⁻¹, the on-rate constant (kon) was 372000 M⁻¹ s⁻¹ and the t½ stood at 9.09 h. For the same molecule, in test [2], the Kd turned out to be 51.8 pM, the off-rate (koff) was 9.4e-05 s⁻¹, the kon stood at 1.82e+06 M⁻¹ s⁻¹ and the t½ amounted to 2.05 h.

B3: mAb15166 (antibody, V domains shown)
VH: EVQLVESGGGLVQPGGSLRLSCAASGFTVTSNYMSWVRQAPGKGLEWVSAIYSGESTYYADSVKGRFTISRDSSKNTLYLQMNSLRVEDTAVYYCASIHDYSNYVGGFDPWGQGTLVTVSS
VL: QSALTQPASVSGSPGQSITISCTGPSSDFGSYNLVSWYQQHPGKAPKLMIYEGTKRPSGVSNRFSGSKSGNTASLTISGLQAEDEADYYCSSYAGSSTWVFGGGTKLTVLG
For B3, in test [1], the Kd amounted to 16 pM, the koff worked out at 1.62e-05 s⁻¹, the on-rate (kon) worked out at 1.02e+06 M⁻¹ s⁻¹ and the t½ is 11.9 h. In test [2], this molecule yielded a Kd of 126 pM, a koff of 9.8e-05 s⁻¹, a kon of 781000 M⁻¹ s⁻¹ and a t½ of 1.97 h.

B4: mAb15165 (antibody, V domains shown)
VH: EVQLVESGGGLVQPGGSLRLSCAASGFTVSSNYMSWVRQAPGKGLEWVSAIYSGDSTYYADSVKGRFTISKDNSKNTLYLQMNSLRGEDTAVYYCARLGGALQAYDGAFDYWGQGTLATVSS
VL: QSALTQPASVSGSPGQSITISCTGTSSDFGSYNLVSWYQQHPGKAPKLMIYEGNKRPSGVSIRFSGSKSGNTASLTISGLQAEDEADYYCSSYAGSSTWVFGGGTKLTVLG
Regarding B4, in test [1], the affinity, expressed as Kd, was 129 pM; the kon amounted to 301000 M⁻¹ s⁻¹; the t½ came out at 4.96 h. In test [2], this molecule returned a Kd of 450 pM, a koff of 4.55e-05 s⁻¹, a kon of 100000 M⁻¹ s⁻¹ and a t½ of 4.23 h.

B5: mAb15161 (antibody, V domains shown)
VH: EVQLVESGGGLVQPGGSLRLSCAASGFTFSSYEMNWVRQAPGKGLEWVSYISSSGSILYYADSVKGRFTASRDNAKNSLYLQMNSLRAEDTGVYYCARREYQLLRPFEFWGQGTLVTVSS
VL: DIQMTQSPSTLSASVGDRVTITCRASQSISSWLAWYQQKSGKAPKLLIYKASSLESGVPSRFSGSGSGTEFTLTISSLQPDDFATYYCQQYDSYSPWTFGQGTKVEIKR
Regarding B5, in test [1], the Kd came to 11.9 pM, the koff amounted to 1.26e-05 s⁻¹, the kon turned out to be 1.06e+06 M⁻¹ s⁻¹ and the t½ came out at 15.2 h. In test [2], the dissociation constant Kd amounted to 46.9 pM, the koff is 4.9e-05 s⁻¹, the kon stood at 1.05e+06 M⁻¹ s⁻¹ and the t½ came out at 3.93 h.

B6: mAb15162 (antibody, V domains shown)
VH: EVQLVETGGGLIQPGGSLRLSCAASEFIVSRNYMSWVRQAPGKGLEWVSLIYSGGSTYYADSVKGRFTISRDNSKNILYLQMNSLRAEDTAVYYCARDRGGISDYWGQGTLVTVSS
VL: DIQMTQSPSSLSASVGDRVTITCQASQDINKYLNWFQQKPGKAPKLLIYDASNLETGVPSRFSGSGSGTDFTFTISSLQPEDIATYYCQQYDNLPRTFGQGTKLEIKR
Take B6: in test [1], binding was characterised by a dissociation constant (Kd) of 179 pM, the koff turned out to be 0.00023 s⁻¹, the kon worked out at 1.29e+06 M⁻¹ s⁻¹ and the t½ stood at 0.837 h. In test [2], this molecule displayed an equilibrium dissociation constant (Kd) of 500 pM, a koff of 0.000101 s⁻¹, a kon of 200000 M⁻¹ s⁻¹ and a t½ of 1.91 h.

B7: mAb15151 (antibody, V domains shown)
VH: QVQLVESGGGVVQPGRSLRLSCAASGFVFNSYGMHWVRQAPGKGLEWVAVLWYEGSKNYYADSVKGRFTISRDNSKNTLYLQMNSLRAEDTAVYYCARHGSGSFFGYYLDYWGQGTLVTVSS
VL: DIQMTQSPSSLSASVGDRVTITCRASHNINDFLNWYQQKPGKAPRLLIYAASSLQSGVPSRFSGSGSGTDFTLTISSLQPEDFATYYCQESYTTPPTFGQGTKLEIKR
In the case of B7, in test [1], the Kd was determined as 3.38 pM, the koff is 3.12e-05 s⁻¹, the kon is 9.24e+06 M⁻¹ s⁻¹ and the t½ was 6.16 h. In test [2], the affinity, expressed as Kd, was 850 pM; the koff is 0.0031 s⁻¹; the kon amounted to 3.7e+06 M⁻¹ s⁻¹; the t½ came to 0.0617 h.

B8: mAb15163 (antibody, V domains shown)
VH: EVQLVETGGGLIQPGESLRLSCAASGFIVSTNYMNWVRQAPGKGLEWVSVIYRGGSTYYADSVKGRFTISRDNSKNTLFLQMNSLRAEDTAVYYCARGHEDFDYDTPASGAFDIWGQGTMVTVSS
VL: QSALTQPPSASGSPGQSVTISCTGTSSDVGGHNYVSWYQQHPGKAPKVMIYEVSKRPSGVPDRFSGSKSGNTASLTVSGLQAEDEADYYCSSYAGSNKFVFGTGTKVTVLG
As for B8, in test [1], the dissociation constant Kd is no more than 10.8 pM, the off-rate constant (koff) is no more than 1e-05 s⁻¹, the kon worked out at 930000 M⁻¹ s⁻¹ and the t½ is 19.2 h. For the same molecule, in test [2], binding was put at a Kd of 60.1 pM, the koff was found to be 2.5e-05 s⁻¹, the kon was 416000 M⁻¹ s⁻¹ and the t½ is 7.7 h.

In general, Kd refers to the equilibrium constant for the complex coming apart. Lower therefore signals a tighter complex. Broadly, the koff is a measure of how fast the partners let go of each other. Read a high koff as fast dissociation. As a reminder, the kon is the rate constant with which the complex forms. What is called t½ is how long it takes for the measured level to halve.
